Measurements as given in patent US9315838B2, “Method to increase algal biomass and enhance its quality for the production of fuel” (priority 2012, dated 2016).
“Also recorded” adds a separate entry of the source.

How the values were obtained:
[1] = tested on: Chlamydomonas reinhardtii pgd1 mutant; experiment: Chlorosis, chlorophyll content and cell viability of N-deprived cultures with DCMU; conditions: DCMU 2 μM added to N-deprived (TAP-N) cultures
[2] = tested on: Chlamydomonas reinhardtii; experiment: TAG accumulation (ratio of fatty acids in TAG over total fatty acids) after N deprivation with DCMU; format: cell-based; conditions: 2 d of N deprivation, FIG. 8E
Method: FIG. 8. […] Two representative cultures per line are shown.
Strains and growth conditions.
(§1) Lipid extraction, thin-layer chromatography (TLC) of neutral lipids, transesterification and gas-liquid chromatography were done according to (Moellering and Benning 2010). Briefly, lipids were extracted from cell pellets with methanol, chloroform, 88% formic acid (2:1:0.1 by volume). To the extract 0.5 volume of 1M KCl, 0.2 M H3PO4 was added, mixed and phases were separated by low speed centrifugation. For TAG quantification, lipids were resolved by TLC on Silica G60 plates (EMD chemicals, #5721-7, http://www.emdchemicals.com) developed in petroleum ether-diethyl ether-acetic acid (80:20:1 by volume). Polar lipids were separated on the same plate using chloroform-methanol-acetic acid-H2O (75:13:9:3 by volume) as solvent. To analyze lyso-glycolipids during for the PGD1 assay, acetone-toluene-H2O (91:30:7.5 by volume) was used, instead. Brief exposure to iodine vapor was employed for visualization of lipids. Transesterification of each lipid and separation of fatty acid methyl esters by GLC were as previously described (Rossak et al. 1997). Transesterification was conducted on pellets with a known number of cells to determine the cellular total fatty acid content. Staining with α-naphtol (Benning et al. 1995) was used for the PGD1 assay to detect galactoglycerolipids.

[3] = tested on: Chlamydomonas reinhardtii pgd1 mutant; experiment: Thiobarbituric acid reactive substances (TBARS) analysis following N deprivation; conditions: DCMU 2 μM, FIG. 8D
[4] = PGD1 lipase assay on DGDG; format: biochemical, Chlamydomonas
Method: (§2) Lipid extraction, thin-layer chromatography (TLC) of neutral lipids, transesterification and gas-liquid chromatography were done according to (Moellering and Benning 2010). Briefly, lipids were extracted from cell pellets with methanol, chloroform, 88% formic acid (2:1:0.1 by volume). To the extract 0.5 volume of 1M KCl, 0.2 M H3PO4 was added, mixed and phases were separated by low speed centrifugation. For TAG quantification, lipids were resolved by TLC on Silica G60 plates (EMD chemicals, #5721-7, http://www.emdchemicals.com) developed in petroleum ether-diethyl ether-acetic acid (80:20:1 by volume). Polar lipids were separated on the same plate using chloroform-methanol-acetic acid-H2O (75:13:9:3 by volume) as solvent. […]
(§3) BL21 (codon+) E. coli strains harboring the empty pMK1006 vector or the pMK1006-PGD1 construct were grown to log phase at 37° C. […] Protein concentration was determined with Bio-Rad Protein Assay Dye Reagent Concentrate (http://www.bio-rad.com) according to the manufacturer's instructions.
(§4) To prepare lipid substrates from Chlamydomonas or E. coli cells, lipids were extracted from 48 hours N-deprived Chlamydomonas cells or IPTG induced E. coli cells expressing cucumber MGDG synthase (Shimojima et al. 1997) and resolved by polar TLC. […] Per assay 10 μg refolded PGD1 protein (quantified as stated above) in 50 μL protein refolding buffer was added. […]

[5] = PGD1 lipase assay on MGDG; format: biochemical
Method: as §1
BL21 (codon+) E. coli strains harboring the empty pMK1006 vector or the pMK1006-PGD1 construct were grown to log phase at 37° C. Isopropyl-β-D-thiogalactopyranoside was added to the final concentration of 0.5 mM to induce protein production. Cells were harvested after 3 hours of induction. To extract proteins, cells were resuspended in lysis buffer (20 mM Tris-HCl, pH 7.9, 10% glycerol, 150 mM NaCl, 1 mM dithiothreitol). The mixture was then frozen in liquid nitrogen and thawed at room temperature for three cycles and sonicated to lyse cells. Lysates were centrifuged at 21,000×g for 15 minutes to obtain inclusion bodies. Inclusion bodies were washed with 5 mL/g wash buffer (4 M urea, 0.5 M NaCl, 1 mM EDTA, 1 mg/ml sodium deoxycholate, 50 mM Tris-Cl pH 8.0) twice and denatured with solubilization buffer (8 M urea, 50 mM Tris-Cl pH 8.0, 10 mM dithiothreitol) by incubation at 50° C. for 20 min. Supernatant was collected after centrifugation at 21,000×g for 30 minutes and subjected to Ni-NTA affinity purification as described before (Lu and Benning 2009). His-tagged PGD1 protein was eluted with solubilization buffer containing 200 mM imidazole. […] After 1 hour incubation at 4° C., proteins were aliquoted and kept frozen at −80° C. Protein concentration was determined with Bio-Rad Protein Assay Dye Reagent Concentrate (http://www.bio-rad.com) according to the manufacturer's instructions.
as §4, with “TLC. Corresponding bands were isolated and lipids were recovered from silica gel by extraction with chloroform-methanol (1:1 by volume). For each PGD1 reaction, 75 nmol lipid substrates extracted from Chlamydomonas, or E. coli cells expressing the cucumber MGDG synthase were used.” for “TLC.”

[6] = PGD1 lipase assay on other major membrane lipids; format: biochemical, Chlamydomonas
Method: as §2, §3, §4

CN(C)C(=O)Nc1ccc(Cl)c(Cl)c1 [DCMU, 3-(3,4-dichlorophenyl)-1,1-dimethylurea]
chlorosis ([1]; FIG. 8A, B): suppressed | viability loss ([1]; FIG. 8C): suppressed | pgd1 TAG phenotype ([2]; pgd1 mutant, DCMU 2 μM): did not rescue | TAG levels of the wild-type parental strain ([2]; wild-type parental strain dw15-1, DCMU 2 μM): decrease; also recorded: lower levels of TAG | burst of TBARS in the pgd1 mutant [3]: reverted

B1: PGD1: recombinant Chlamydomonas galactoglycerolipid lipase (SEQ ID NO:1), His-tagged, purified from E. coli inclusion bodies and refolded (protein, listed as Chlamydomonas reinhardtii)
chain: MSQLLSHFVRVPTFASPDQVLREARDKERELQNARAPTDVSGFLAPVGVWELKHLRKLSSLTSLTYYMHLVTPRRLQLMHGLDLVVTSRACDVRPYEHNRTAEECGADGDGMAVSFAEARQVYAELKRGTGGASGSGSNGAAAAPVAVAAGVSNIVALPRELPFVPLPGGATEGGEAGAEAAAGAAAAAAAAAGEGTGPGAQGQGAGGLQLPLASTEAIGRMLRSPAEVVSAKLAEAALAASAAAAASPLGAAAESFYAGLASLPIPLAGGLVGANNKAANTLLAPPNGAAASSSGGGGGSGGAAAASEVVGSSRGAQGADPADPGAPNTSGKATAASIAAMATAELRSRRLGGTGPAKTGGSGAASSGSSSGGIGAGGMAPVTAGGMRLSPAATAFSAPPAATVSSLASTDAGTALVPVASSSAASLTFSSSSAYSCPSEWFVVDDPASATRIFVIQGSDTLDHWKLNLTFDPVVFEEPALGVKVHRGVYEAALVLYERFLPLVYEHLEASPFSKVTFTGHSIGGSMATLLMLMYRNRGVLPPHSIATVYTFGAPAVFCQQQQPAVADASSACCNGSSSNGSSTPASGSSSPRSGSPGSASASSLPAGSGSGAGGMSLWALGLSGFGMGGASLAGGGSTSAPSSTAGLASVDGGAVAAGGGGSGFNSSGLGFMSVEDPQAVSMPPGAAQAPSPASAPAPTAGPGHNSHSSHSKAGPAAAKSCACGVDGLLTRLGLAPHVVRNVVMARDVVPRAFACDYSLVADILKGWGPAFREHCCLNRHGRKHLYYFVGRMCILQPDAWHSFVGGDPEHPMLPPGPELYALAEPEDAAAARAHYPALSDLPILNAVTSNGHTRGSGGNGANAAVNAAVNASGPSAAASGGGGGSQQPTAAAAVPSTANFGTALVASAAQRERDARGGGSRLQPRSVVEAVWEIMDNPHPLETLADPGAYLASGSISRYHNPEHYTKALGRLTHLKRLAERRQHPHGQAQQKQAQPQAGEGGIRSMFAGRNIRSFGGGVRSGSGSGSAGRRGLLHQQAASNGTAADAVLASGAAGAAAAAWGSAPQLADLVSGNGGRASAGYEGGVWDSSDGLDLHLSDFMGASAVGAADPHACR
modifications: His tag
formation of lyso-DGDG ([4]; DGDG extracted from Chlamydomonas, sugar-specific staining, FIG. 7C): no formation of lyso-DGDG was detected | product formed in competition experiment ([4]; E. coli-derived MGDG and Chlamydomonas-derived DGDG offered in equal amounts): only lyso-MGDG was formed | apparent MGDG concentration up to which hydrolysis was linear in reaction velocity ([5]; E. coli-derived MGDG, 3 hours incubation, FIG. 15B): ≤ 300 µM | time at which lyso-MGDG was detectable ([5]; E. coli-derived MGDG, FIG. 15A): 30 min | positional preference of acyl group hydrolysis ([5]; E. coli-derived MGDG, compared with Rhizopus lipase digestion, FIG. 7H, 7I): prefers acyl groups at the sn-1 position | activity on E. coli-derived MGDG versus mature MGDG from Chlamydomonas ([5]; intensity of the lyso-MGDG band, FIG. 7B): more active | lyso-MGDG product generated ([5]; mature MGDG isolated from Chlamydomonas (predominantly 18:3/16:4), TLC, FIG. 7B): rather faint | generation of lyso-DGTS and lyso-PtdEtn ([6]; iodine staining, compared with Rhizopus lipase, FIGS. 16A and 16B): detectable by iodine staining, but at much lower levels | Lyso-SQDG hydrolysis ([6]; sugar-specific staining, FIG. 16D): not detectable
